Source: doi:10.1101/2025.09.04.674340

B1: Ab1999 Fab (Fab, V domains shown)
VH: QVQLQESGPGLVKPSETLSLTCAVSGGSISDDYSWSWIRQPPGKGLEWIGYIYGSGGGTNYNPSLKNRVTISIDTSKNQFSLKLSSVTAADTAVYYCARIFAFITVFGVVTPEDNWFDVWGPGVLVTVSS
VL: DIQMTQSPSSLSASVGDRVTITCRASQSINNYLHWYQQRAGEAPKLLIYAASALQTGVPSRFSGSGSGTDFTLTISSLQPEDVATYYCQHSYGTPYSFGQGTKVEIK
B2: Ab1983 Fab (Fab, V domains shown)
VH: QLQLQESGPGLVKPSETLSLTCAVSGGSISSDYYYWSWIRQPPGKGLEWIGGIYSISESTNYNPSLKSRVTISKDTSKNQFSLKLSSVTAADTAVYFCARKDPYSSGWTPDYWGQGVLVTVSS
VL: QSVLTQPSSASASLGASVTLTCTLSSGYSNYAVDWHQQRPGKGPQFVMRVGTGGIVGSKGDGIPDRFSGSGSGLNRYLTIKNIQEEDESDYHCGADHGTGSSFVWVFGGGTRLTVL

Legend:
[1] = target: RC1 Env SOSIP trimer (HIV-1 strain BG505); assay: cryo-EM structure
[2] = target: WIN332 Env SOSIP trimer (HIV-1 strain BG505); assay: cryo-EM structure

Binder | stoichiometry N (Fab per Env trimer) [1] | stoichiometry N (Fab per Env trimer) [2]
B1 | 1 | 
B2 |  | 2
